Publication PMC6764022 (ACS Nano, 2019)
Bridges are numbered along the chain shown (N, C = ends). Roman numbers before positions name the chains, in order. Where no end group is shown, it is not given here. [ ]: non-standard residue; d: D form. Lys(N3) = [N-]=[N+]=NCCCC[C@H](N)C(=O)O

Tests used:
[1] = Sedimentation equilibrium analytical ultracentrifugation (AUC); assay type: physicochemical; conditions: PBS, 20 °C; for Oligomeric state (Table S3), reduced / MWAUC (Table S3), reduced: 10 fold excess of TCEP; for Oligomeric state (Table S3), reduced / MWAUC (Table S3), reduced / oligomeric state by AUC, in words / Oligomeric state (Table S3): 55 μM; for MWAUC (Table S3), reduced: 280 nm (235 nm for the KE peptides); for MWAUC (Table S3): 55 μM each, 44–60 krpm, single ideal species, 280 nm (235 nm for CC-Di-KE), performed once, 99% confidence limits in separate column; for Oligomeric state (Table S3): single run
[2] = CD spectra and thermal unfolding; assay type: physicochemical; conditions: 5 °C, 50 μM, neutral pH (PBS pH 7.4)
Experimental: Figure 1 Biophysical characterization of the coiled-coil heterodimer formed between charge-neutral peptides CC-Di-EK and CC-Di-KE. (a) CD spectra recorded at 5 °C and (b) thermal unfolding (filled symbols, solid line) and refolding (open symbols, dashed line) profiles, monitored through the CD signal at 222 nm, of the individual peptides CC-Di-EK (red, circles) and CC-Di-KE (blue, squares) and of an equimolar mixture of CC-Di-EK:KE (purple, triangles). The average of the spectra of the individual peptides is shown in black (no symbols). […] Representative data from a minimum of three replicates are shown. Conditions: each peptide 50 μM in PBS (pH 7.4), 1 mm path length quartz cuvette. […]
(§1) Exceptions were CC-Di-EK-Z and Z-CC-Di-KE, the masses of which were confirmed by infusing sample from an Advion Nanomate Triverser (Nanospray source) at 1.4 kV into a Waters Synapt G2S IMS Q -TOF mass spectrometer. Peptide purity was determined to be >95% using a JACSO HPLC system set up with an analytical reverse phase Phenomenex Kinete x C18 column (5  µM particle size; 100 Å pore size; 100 x 4.6 mm) running linear gradients of buffer B vs. buffer A.
(§2) Peptide Concentration determinations. Peptide concentrations were determined in H 2O by UV-vis absorption at 280 nm on a Nanodrop 2000 (Thermo Scientific) using the following extinction coefficients: […]

[3] = test system: ssDNA tags; test: CD test of interaction of peptides with ssDNA tags; assay type: binding; conditions: CD spectra (Figure S6a,b)
Text: Peptide modelling. Parametric models for all six combinations of CC-Di-EK and CC-Di-KE as hetero and homodimeric parallel and antiparallel coiled coils were generated using ISAMBARD (https://github.com/woolfson -group/isambard).1 These were optimized for BUDE Interaction Energy in ISAMBARD using a genetic algorithm which generated 30,000 models per combination over 3 0 generations with 1,000 models in each. To ensure that we generated useful models, we restricted geometric parameters to values consistent with coiled -coil dimers. For both the parallel and antiparallel […]
z shift = 0 ± 5 Å. Optimizations were repeated three times for each combination.
Peptide purification. […]
as §1, §2

[4] = target: the molecule itself; test: AUC; sedimentation equilibrium, 55 µM of each peptide in PBS pH 7.4, 20 °C, 44-60 krpm, fits to a single ideal species
[5] = target: the molecule itself; test: AUC; sedimentation equilibrium, 55 µM of each peptide in PBS, 20 °C, with TCEP reducing agent (10-fold excess; for the pair 5-fold relative to total peptide), fits to a single ideal species
[6] = target: the molecule itself; test: AUC; sedimentation equilibrium of the disulfide-linked heterodimers, 55 µM in PBS, 20 °C, 24-39 krpm in 3 krpm steps (colour key of Figure S3 o, p), fits to a single ideal species
[7] = target: the molecule itself; test: counting of free and bound DNA origami nanostructures in electron micrographs (TEM); peptides displayed on DNA origamis A and B through oligonucleotide tags; gel-purified An and Bn mixed, total monomer concentrations 0.25-2.4 nM; background of random coincidences subtracted; Kd from the slope of a linear fit through the origin; additional systematic error of approximately 20%
[8] = target: T1, CC-Di-KE (N-terminal acetylation (methods, said of the peptides in general)); test: circular dichroism thermal unfolding, concentration dependence of TM; Kd for heterodimerization estimated from the concentration dependence of the TM of free peptides in solution; conditions: both partners purified
T1 chain: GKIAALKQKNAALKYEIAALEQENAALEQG

[9] = target: T2, B1: DNA origami B decorated with one β-CC-Di-KE (azidonorleucine (Z) at the N-terminus, joined to oligonucleotide tag β, which is hybridised to a handle of DNA origami B); test: counting of free and bound DNA origami nanostructures in electron micrographs (TEM); peptides displayed on DNA origamis A and B through oligonucleotide tags; gel-purified An and Bn mixed, total monomer concentrations 0.25-2.4 nM; background of random coincidences subtracted; Kd from the slope of a linear fit through the origin; additional systematic error of approximately 20%; conditions: both partners purified
T2 chain: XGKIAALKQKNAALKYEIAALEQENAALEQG

**Q.** With “Ac-CGG EIAALEQ ENAALEQ KIAALKW KNAALKQ G-NH2 (Ac-CGGEIAALEQENAALEQKIAALKWKNAALKQG-NH2) [C-CC-Di-EK, N-terminally Cys-labelled CC-Di-EK]” as the molecule, how does the “Oligomeric state (Table S3), reduced” value [1] read?
**A.** 1.96 x monomer

**Q.** And the “MWAUC (Table S3), reduced” value [1]?
**A.** 6683 Da

**Q.** What about the “oligomeric state by AUC, in words” value [1] of the same molecule?
**A.** exists as a dimer in solution even under reducing conditions

**Q.** What does the source list for “Ac-CGG KIAALKQ KNAALKY EIAALEQ ENAALEQ G-NH2 (Ac-CGGKIAALKQKNAALKYEIAALEQENAALEQG-NH2) [C-CC-Di-KE, CC-Di-KE with N-terminal Cys]”?
**A.** Oligomeric state (Table S3), reduced [1]: 0.92 x monomer; MWAUC (Table S3), reduced [1]: 3126 Da

**Q.** Which results are given for “Ac-G EIAALEQ EIAALEQ KNAALKW KIAALKQ G-NH2 (Ac-GEIAALEQEIAALEQKNAALKWKIAALKQG-NH2) [CC-Di-EN4, 4-heptad coiled-coil peptide withone asparagine]”?
**A.** MWAUC (Table S3) [1]: 6079 Da; Oligomeric state (Table S3) [1]: 1.87 x monomer

**Q.** For “Ac-G EIAALEQ ENAALEQ KIAALKW KNAALKQ G-NH2 (Ac-GEIAALEQENAALEQKIAALKWKNAALKQG-NH2) [CC-Di-EK, charge-neutral coiled-coil peptide, four heptads, asparagines at two a sites]”, which “folding state by CD” value [2] is on record?
**A.** either largely or fully unfolded

**Q.** And the “MWAUC (Table S3)” value [1]?
**A.** 3274 Da

**Q.** And the “Oligomeric state (Table S3)” value [1]?
**A.** 1.00 x monomer

**Q.** What about the “oligomeric state by AUC, in words” value [1] of the same molecule?
**A.** monomers

**Q.** What about the “interaction with ssDNA tags” value [3] of the same molecule?
**A.** no interaction

**Q.** What does the source list for “Ac-G EIAALEQ ENAALEQ KIAALKW KNAALKQ GC-NH2 (Ac-GEIAALEQENAALEQKIAALKWKNAALKQGC-NH2) [CC-Di-EK-C, CC-Di-EK with C-terminal Cys]”?
**A.** Oligomeric state (Table S3), reduced [1]: 1.04 x monomer; MWAUC (Table S3), reduced [1]: 3474 Da

**Q.** What does the source list for “Ac-G EIAALEQ ENAALEQ KIAALKW KNAALKQ GC-NH2 | Ac-G KIAALKQ KNAALKY EIAALEQ ENAALEQ GC-NH2 (disulfide) [CC-Di-EK-C | CC-Di-KE-C, obligate heterodimer linked by disulfide via both C-termini]”?
**A.** Oligomeric state (Table S3), disulfide-linked heterodimer ([1]; 24–39 krpm (Figure S3 o, p)): 1.00 x obligate dimer; MWAUC (Table S3), disulfide-linked heterodimer ([1]; 24–39 krpm (Figure S3 o, p), 280 nm): 6695 Da

**Q.** For “Ac-G EIAALEQ KNAALKW KIAALKQ G-NH2 (Ac-GEIAALEQKNAALKWKIAALKQG-NH2) [CC-Di-EN3, 3-heptad coiled-coil peptide]”, which “MWAUC (Table S3)” value [1] is on record?
**A.** 2369 Da

**Q.** What about the “Oligomeric state (Table S3)” value [1] of the same molecule?
**A.** 0.95 x monomer

**Q.** What does the source list for “Ac-G KIAALKQ KNAALKY EIAALEQ ENAALEQ G-NH2 (Ac-GKIAALKQKNAALKYEIAALEQENAALEQG-NH2) [CC-Di-KE, charge-neutral coiled-coil peptide, partner of CC-Di-EK]”?
**A.** folding state by CD [2]: either largely or fully unfolded; MWAUC (Table S3) [1]: 3096 Da; Oligomeric state (Table S3) [1]: 0.96 x monomer; oligomeric state by AUC, in words [1]: monomers; interaction with ssDNA tags [3]: no interaction

**Q.** Which “Oligomeric state (Table S3), reduced” value [1] does the source give for “Ac-G KIAALKQ KNAALKY EIAALEQ ENAALEQ GC-NH2 (Ac-GKIAALKQKNAALKYEIAALEQENAALEQGC-NH2) [CC-Di-KE-C, CC-Di-KE with C-terminal Cys]” here?
**A.** 0.92 x monomer

**Q.** What about the “MWAUC (Table S3), reduced” value [1] of the same molecule?
**A.** 3062 Da

**Q.** With “Ac-G LEQ EIAALEQ KNAALKW KIAALKQ G-NH2 [CC-Di-EN3.5, 3.5-heptad coiled-coil peptide]” as the molecule, how does the “MWAUC (Table S3)” value [1] read?
**A.** 2982 Da

**Q.** And the “Oligomeric state (Table S3)” value [1]?
**A.** 1.04 x monomer

**Q.** With Ac-GEIAALEQEIAALEQKNAALKWKIAALKQG-NH2 [CC-Di-EN4] as the molecule, how does the “stoichiometry N” value [4] read?
**A.** 1.87 x monomer

**Q.** With Ac-CGGEIAALEQENAALEQKIAALKWKNAALKQG-NH2 [C-CC-Di-EK] as the molecule, how does the “stoichiometry N” value [5] read?
**A.** 1.96 x monomer

B1: CC-Di-EK-C disulfide-linked to C-CC-Di-KE (opposite ends) (complex)
peptide 1: Ac-GEIAALEQENAALEQKIAALKWKNAALKQGC-NH2
peptide 2: Ac-CGGKIAALKQKNAALKYEIAALEQENAALEQG-NH2
modifications: disulfide I:31-II:1
**Q.** For B1, which “stoichiometry N” value [6] is on record?
**A.** 2.6 x obligate dimer

**Q.** For [Lys(N3)]GKIAALKQKNAALKYEIAALEQENAALEQG-NH2 (other, also: tag β hybridised to handle of DNA origami B, three copies per origami) [B3: DNA origami B decorated with three β-CC-Di-KE], which Kd [7] is on record?
**A.** 20 ± 3 nM

**Q.** Which Kd [8] does the source give for Ac-GEIAALEQENAALEQKIAALKWKNAALKQG-NH2 [CC-Di-EK] here?
**A.** 102 ± 26 nM

**Q.** Which Kd [9] does the source give for GEIAALEQENAALEQKIAALKWKNAALKQG[Lys(N3)]-NH2 (other, also: tag α hybridised to handle of DNA origami A, one copy per origami) [A1: DNA origami A decorated with one CC-Di-EK-α] here?
**A.** 130 ± 20 nM
